Experimental data: US20240218057A1

Assays:
Experiment in all cases: cell-based or functional assay
[1] = target: wildtype SARS-COV-2 spike protein on pseudotyped virus (SARS-CoV-2) (UniProt P0DTC2)
[2] = target: wildtype SARS-CoV-2 spike protein (pseudovirus) (SARS-CoV-2) (UniProt P0DTC2)
[3] = target: SARS-COV-2 spike protein (pSARS-COV-2-SΔ19) on HIV-1 pseudotyped particles (SARS-COV-2) (UniProt P0DTC2)
[4] = target: SARS-CoV-2 spike protein (wild type, pSARS-COV-2-SΔ19) on HIV-1 pseudotyped particles (SARS-CoV-2) (UniProt P0DTC2)

Question: C121 (antibody) was tested. Which neutralization IC50 [1] did it give?
Answer: 0.0051 µg/mL

Question: And the neutralization IC90 [1]?
Answer: 0.0198 µg/mL

Question: How did the neutralization IC50 [1] turn out when C135 (antibody) was run?
Answer: 0.00859 µg/mL

Question: What about the neutralization IC90 [1] of the same substance?
Answer: 0.0406 µg/mL

Question: With C144 (antibody) as the substance, how does the IC50 neutralization [2] read?
Answer: 0.0037 µg/mL

Question: What about the IC90 neutralization [2] of the same substance?
Answer: 0.0159 µg/mL

Question: And the IC50 [3]?
Answer: 0.00286 µg/mL

Question: And the IC90 [3]?
Answer: 0.0405 µg/mL

Question: What about the Neutralization activity IC50 [4] of the same substance?
Answer: 0.00286 µg/mL

Question: And the Neutralization activity IC90 [4]?
Answer: 0.0405 µg/mL

Question: And the neutralization IC50 [1]?
Answer: 0.00374 µg/mL

Question: And the neutralization IC90 [1]?
Answer: 0.0159 µg/mL
